This is an account of results in patent publication US8524231.

Assay [1] concerns the target biotinylated human IL-1Beta (human) (UniProt P01584). Put plainly: competition ELISA: periplasmic Fab extract plus biotinylated IL-1Beta on coated mouse mAb (competitor); reduced signal means competition. In general terms: An ELISA detects its analyte on a solid surface through an enzyme-linked reagent.
The target is the same in assay [2]. Briefly: cell-based or functional assay.
For assay [3] the target is unchanged. Put plainly: ELISA based competition assay against the antagonistic reference mouse mAb (competitor).

biotinylated human IL-1Beta (human), sequence (P01584 117-269 limits assumed): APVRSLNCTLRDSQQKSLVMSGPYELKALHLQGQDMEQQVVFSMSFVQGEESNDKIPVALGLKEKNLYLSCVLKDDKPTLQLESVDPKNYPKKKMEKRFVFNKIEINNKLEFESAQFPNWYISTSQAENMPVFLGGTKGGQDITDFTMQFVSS

B1: antagonistic Fab 1A1 (Fab, part only; not given: lambda light chain, constant domains, V domains shown, not shown: a dimerising Fc or GST)
VH: EVQLVESGGGLVQPGGSLRLSCAASGFTFDDYAMSWVRQAPGKGLEWVSTISWNGGATYYAESMKGRFTISRDNAKNTLYLQMNSLKSEDTAVYYCAKPYYSDYVGVEYDYWGQGTQVTVSS
Take B1: in assay [1], the signal (OD) in the competition assay was found to be 0.205 OD.

B2: antagonistic Fab 1C3 (Fab, part only; not given: lambda light chain, constant domains, V domains shown, not shown: a dimerising Fc or GST)
VH: EVQLVESGGGLVQPGGSLRLSCAASGFTFSSYWMYWVRQAPGKGLEWVSAINTGGGRTYYADSVKGRFTISRDNAKNTLYLQMNSLKSEDTAVYYCAKGTSADGSSWYVPADPYDYWGQGTQVTVSS
Molecule B2 gave an IC50 in the bioassay in assay [2] of 3 µg/mL. For the same molecule, the signal (OD) in the competition assay in assay [1] is 0.386 OD. This molecule also yielded a concentration at which competition is seen in assay [3] above 50 µg/mL.

B3: antagonistic Fab 1B3 (Fab, part only; not given: lambda light chain, constant domains, V domains shown, not shown: a dimerising Fc or GST)
VH: EVQLVQSGAELRNPGASVKVSCKASGYTFTSYYIDWVRQAPGQGLEWMGRIDPEDGGTKYAQKFQGRVTFTADTSTSTAYVELSSLRSEDTAVYYCARSGRYELDYWGQGTQVTVSS
For the molecule B3, the signal (OD) in the competition assay in assay [1] was determined as 0.444 OD.

B4: Fab 1G1 (clone related to 1B3) (Fab, part only; not given: light chain, V domains shown, part only)
VH: EVQLVQSGAELRNPGASVKVSCKASGYTFTSYYTDWVRQAPGQGLEWMGRIDPEDGDTKYAQKFQGRVTFTADTSTSTAYVELTSLRSEDTAVYYCLRSGAYELDYWGQGTQVTVSS
Consider B4, for which, in assay [1], the signal (OD) in the competition assay was determined as 0.498 OD.
